{"source": "paper PMC11549327", "about": "(Nature Communications, 2024)", "molecular_target": "the molecule itself", "experiment": "cryo-EM structure", "data": [{"protein": "E. coli ClpP-His6 (tetradecamer) (enzyme) not shown", "values": [{"measurement": "stoichiometry N", "result": 14}]}]}
